Data as given in article PMC6698744.
Read-outs that look alike come from different tables or passages of the source.

Columns and labels:
A3Gctd-2K3A-E259A [1] = molecular target: T1, A3Gctd-2K3A-E259A (UniProt Q9HC16 191-384, L234K;C243A;E259A;F310K;C321A;C356A); test: MST
A3Gctd-2K3A-E259A [2] = molecular target: T1, A3Gctd-2K3A-E259A; test: MST; remark: listed apart in the source

T1 sequence (Q9HC16 191-384 L234K/C243A/E259A/F310K/C321A/C356A): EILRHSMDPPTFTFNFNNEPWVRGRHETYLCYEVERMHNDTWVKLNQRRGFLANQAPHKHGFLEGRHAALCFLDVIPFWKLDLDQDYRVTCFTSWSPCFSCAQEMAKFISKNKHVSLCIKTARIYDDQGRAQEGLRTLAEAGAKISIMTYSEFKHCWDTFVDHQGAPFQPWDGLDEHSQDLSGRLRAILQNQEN

AATCCCAAA (ssDNA) [5'-AATCCCAAA (substrate)]
Kd (A3Gctd-2K3A-E259A [1]): 1570 ± 160 µM

AATCCUAAA (ssDNA, deoxyuridine at position 6) [5'-AATCCdUAAA (intermediate product)]
Kd (A3Gctd-2K3A-E259A [1]): 2170 ± 250 µM

AATCCCAAA (ssDNA, ribocytidine at position 6, rest DNA) [5'-AATCCrCAAA]
Kd (A3Gctd-2K3A-E259A [1]): 6650 ± 860 µM

ATTCCCAATT (XNA, 2'-deoxy-2'-fluororibocytidine at position 6, rest DNA) [5'-ATTCC(2'-F-RNA)CAATT]
Kd (A3Gctd-2K3A-E259A [1]): 3760 ± 300 µM

ATTCCCAATT (XNA, 2'-deoxy-2'-fluoroarabinocytidine at position 6, rest DNA) [5'-ATTCC(2'-F-ANA)CAATT]
Kd (A3Gctd-2K3A-E259A [2]): 1740 ± 490 µM
